Data set [1] has as its system HeLa Kyoto. Put plainly: solubility in G1/S (NP-40 vs SDS abundance) (log2 ratio); higher = more soluble. The note with it: cell cycle stage: G1/S.
Data set [2] concerns HeLa Kyoto. Put plainly: solubility change mitosis vs G1/S (difference of NP-40 vs SDS log2 ratios) (log2 ratio difference); higher = more soluble in mitosis.
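Wherever solubility change mitosis vs G1/S (difference of NP-40 vs SDS log2 ratios) is given: synchronized HeLa Kyoto cells (double thymidine block for G1/S, nocodazole release for mitosis), protein amounts in NP-40 versus SDS lysates quantified by mass spectrometry, three biological replicates.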
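Wherever solubility in G1/S (NP-40 vs SDS abundance) is given: HeLa Kyoto cells arrested at G1/S by double thymidine block, proteins quantified by TMT10plex mass spectrometry in mild NP-40 versus SDS extracts, three biological replicates.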

For the sequence “MQIIRHSEQTLKTALISKNPVLVSQYEKLNAGEQRLMNEAFQPASDLFGPITLHSPSDWITSHPEAPQDFEQFFSDPYRKTPSPNKRSIYIQSIGSLGNTRIISEEYIKWLTGYCKAYFYGLRVKLLEPVPVSVTRCSFRVNENTHNLQIHAGDILKFLKKKKPEDAFCVVGITMIDLYPRDSWNFVFGQASLTDGVGIFSFARYGSDFYSMHYKGKVKKLKKTSSSDYSIFDNYYIPEITSVLLLRSCKTLTHEIGHIFGLRHCQWLACLMQGSNHLEEADRRPLNLCPICLHKLQCAVGFSIVERYKALVRWIDDESSDTPGATPEHSHEDNGNLPKPVEAFKEWKEWIIKCLAVLQK [AMZ2]”, in the data set on HeLa Kyoto [1], the “solubility in G1/S (log2)” value came to 0.00677. In addition, the “solubility change mitosis (log2)” value in the data set on HeLa Kyoto [2] is -0.0784.

“MEKPRSIEETPSSEPMEEEEDDDLELFGGYDSFRSYNSSVGSESSSYLEESSEAENEDREAGELPTSPLHLLSPGTPRSLDGSGSEPAVCEMCGIVGTREAFFSKTKRFCSVSCSRSYSSNSKKASILARLQGKPPTKKAKVLHKAAWSAKIGAFLHSQGTGQLADGTPTGQDALVLGFDWGKFLKDHSYKAAPVSCFKHVPLYDQWEDVMKGMKVEVLNSDAVLPSRVYWIASVIQTAGYRVLLRYEGFENDASHDFWCNLGTVDVHPIGWCAINSKILVPPRTIHAKFTDWKGYLMKRLVGSRTLPVDFHIKMVESMKYPFRQGMRLEVVDKSQVSRTRMAVVDTVIGGRLRLLYEDGDSDDDFWCHMWSPLIHPVGWSRRVGHGIKMSERRSDMAHHPTFRKIYCDAVPYLFKKVRAVYTEGGWFEEGMKLEAIDPLNLGNICVATVCKVLLDGYLMICVDGGPSTDGLDWFCYHASSHAIFPATFCQKNDIELTPPKGYEAQTFNWENYLEKTKSKAAPSRLFNMDCPNHGFKVGMKLEAVDLMEPRLICVATVKRVVHRLLSIHFDGWDSEYDQWVDCESPDIYPVGWCELTGYQLQPPVAAEPATPLKAKEATKKKKKQFGKKRKRIPPTKTRPLRQGSKKPLLEDDPQGARKISSEPVPGEIIAVRVKEEHLDVASPDKASSPELPVSVENIKQETDD [L3MBTL2]”: the “solubility in G1/S (log2)” value with HeLa Kyoto [1] was -0.293. The “solubility change mitosis (log2)” value in the data set on HeLa Kyoto [2] stood at 0.0658.

With “MVPGARGGGALARAAGRGLLALLLAVSAPLRLQAEELGDGCGHLVTYQDSGTMTSKNYPGTYPNHTVCEKTITVPKGKRLILRLGDLDIESQTCASDYLLFTSSSDQYGPYCGSMTVPKELLLNTSEVTVRFESGSHISGRGFLLTYASSDHPDLITCLERASHYLKTEYSKFCPAGCRDVAGDISGNMVDGYRDTSLLCKAAIHAGIIADELGGQISVLQRKGISRYEGILANGVLSRDGSLSDKRFLFTSNGCSRSLSFEPDGQIRASSSWQSVNESGDQVHWSPGQARLQDQGPSWASGDSSNNHKPREWLEIDLGEKKKITGIRTTGSTQSNFNFYVKSFVMNFKNNNSKWKTYKGIVNNEEKVFQGNSNFRDPVQNNFIPPIVARYVRVVPQTWHQRIALKVELIGCQITQGNDSLVWRKTSQSTSVSTKKEDETITRPIPSEETSTGINITTVAIPLVLLVVLVFAGMGIFAAFRKKKKKGSPYGSAEAQKTDCWKQIKYPFARHQSAEFTISYDNEKEMTQKLDLITSDMADYQQPLMIGTGTVTRKGSTFRPMDTDAEEAGVSTDAGGHYDCPQRAGRHEYALPLAPPEPEYATPIVERHVLRAHTFSAQSGYRVPGPQPGHKHSLSSGGFSPVAGVGAQDGDYQRPHSAQPADRGYDRPKAVSALATESGHPDSQKPPTHPGTSDSYSAPRDCLTPLNQTAMTALL [DCBLD1]”, the “solubility in G1/S (log2)” value in the data set with HeLa Kyoto [1] was determined as 0.0249. For the same sequence, the “solubility change mitosis (log2)” value in the data set with HeLa Kyoto [2] is -0.0211.

For “MLGQQQQQLYSSAALLTGERSRLLTCYVQDYLECVESLPHDMQRNVSVLRELDNKYQETLKEIDDVYEKYKKEDDLNQKKRLQQLLQRALINSQELGDEKIQIVTQMLELVENRARQMELHSQCFQDPAESERASDKAKMDSSQPERSSRRPRRQRTSESRDLCHMANGIEDCDDQPPKEKKSKSAKKKKRSKAKQEREASPVEFAIDPNEPTYCLCNQVSYGEMIGCDNEQCPIEWFHFSCVSLTYKPKGKWYCPKCRGDNEKTMDKSTEKTKKDRRSR [ING2]”, the “solubility in G1/S (log2)” value in the data set with HeLa Kyoto [1] is -0.404. In addition, the “solubility change mitosis (log2)” value in the data set with HeLa Kyoto [2] amounted to 0.625.

For “MQAEGRGTGGSTGDADGPGGPGIPDGPGGNAGGPGEAGATGGRGPRGAGAARASGPRGGAPRGPHGGAASAQDGRCPCGARRPDSRLLELHITMPFSSPMEAELVRRILSRDAAPLPRPGAVLKDFTVSGNLLFMSVRDQDREGAGRMRVVGWGLGSASPEGQKARDLRTPKHKVSEQRPGTPGPPPPEGAQGDGCRGVAFNVMFSAPHI [CTAG2]”, the “solubility in G1/S (log2)” value with HeLa Kyoto [1] turned out to be 1. For the same sequence, the “solubility change mitosis (log2)” value with HeLa Kyoto [2] is -0.32.

Regarding “MAAAAEERMAEEGGGGQGDGGSSLASGSTQRQPPPPAPQHPQPGSQALPAPALAPDQLPQNNTLVALPIVAIENILSFMSYDEISQLRLVCKRMDLVCQRMLNQGFLKVERYHNLCQKQVKAQLPRRESERRNHSLARHADILAAVETRLSLLNMTFMKYVDSNLCCFIPGKVIDEIYRVLRYVNSTRAPQRAHEVLQELRDISSMAMEYFDEKIVPILKRKLPGSDVSGRLMGSPPVPGPSAALTTMQLFSKQNPSRQEVTKLQQQVKTNGAGVTVLRREISELRTKVQEQQKQLQDQDQKLLEQTQIIGEQNARLAELERKLREVMESAVGNSSGSGQNEESPRKRKKATEAIDSLRKSKRLRNRK [FBXO28]”, the “solubility in G1/S (log2)” value in the data set with HeLa Kyoto [1] came to 0.375. Further, the “solubility change mitosis (log2)” value in the data set on HeLa Kyoto [2] was found to be 0.262.

“MAKFGVHRILLLAISLTKCLESTKLLADLKKCGDLECEALINRVSAMRDYRGPDCRYLNFTKGEEISVYVKLAGEREDLWAGSKGKEFGYFPRDAVQIEEVFISEEIQMSTKESDFLCLLGVSYTFDNEDSELNGDYGENIYPYEEDKDEKSSIYESDFQIEPGFYATYESTLFEDQVPALEAPEDIGSTSESKDWEEVVVESMEQDRIPEVHVPPSSAVSGVKEWFGLGGEQAEEKAFESVIEPVQESSFRSRKIAVEDENDLEELNNGEPQTEHQQESESEIDSVPKTQSELASESEHIPKPQSTGWFGGGFTSYLGFGDEDTGLELIAEESNPPLQDFPNSISSDKEATVPCTEILTEKKDTITNDSLSLKPSWFDFGFAILGFAYAKEDKIMLDDRKNEEDGGADEHEHPLTSELDPEKEQEIETIKIIETEDQIDKKPVSEKTDESDTIPYLKKFLYNFDNPWNFQNIPKETELPFPKQILDQNNVIENEETGEFSIDNYPTDNTKVMIFKSSYSLSDMVSNIELPTRIHEEVYFEPSSSKDSDENSKPSVDTEGPALVEIDRSVENTLLNSQMVSTDNSLSSQNYISQKEDASEFQILKYLFQIDVYDFMNSAFSPIVILTERVVAALPEGMRPDSNLYGFPWELVICAAVVGFFAVLFFLWRSFRSVRSRLYVGREKKLALMLSGLIEEKSKLLEKFSLVQKEYEGYEVESSLKDASFEKEATEAQSLEATCEKLNRSNSELEDEILCLEKELKEEKSKHSEQDELMADISKRIQSLEDESKSLKSQVAEAKMTFKIFQMNEERLKIAIKDALNENSQLQESQKQLLQEAEVWKEQVSELNKQKVTFEDSKVHAEQVLNDKESHIKTLTERLLKMKDWAAMLGEDITDDDNLELEMNSESENGAYLDNPPKGALKKLIHAAKLNASLKTLEGERNQIYIQLSEVDKTKEELTEHIKNLQTEQASLQSENTHFENENQKLQQKLKVMTELYQENEMKLHRKLTVEENYRLEKEEKLSKVDEKISHATEELETYRKRAKDLEEELERTIHSYQGQIISHEKKAHDNWLAARNAERNLNDLRKENAHNRQKLTETELKFELLEKDPYALDVPNTAFGREHSPYGPSPLGWPSSETRAFLSPPTLLEGPLRLSPLLPGGGGRGSRGPGNPLDHQITNERGESSCDRLTDPHRAPSDTGSLSPPWDQDRRMMFPPPGQSYPDSALPPQRQDRFCSNSGRLSGPAELRSFNMPSLDKMDGSMPSEMESSRNDTKDDLGNLNVPDSSLPAENEATGPGFVPPPLAPIRGPLFPVDARGPFLRRGPPFPPPPPGAMFGASRDYFPPGDFPGPPPAPFAMRNVYPPRGFPPYLPPRPGFFPPPPHSEGRSEFPSGLIPPSNEPATEHPEPQQET [CTAGE5]”: the “solubility in G1/S (log2)” value in the data set on HeLa Kyoto [1] was -0.0196. Further, the “solubility change mitosis (log2)” value with HeLa Kyoto [2] stood at 0.181.

Consider “MGPLRESKKEHRVQHHDKEISRSRIPRLILRPHMPQQQHKVSPASESPFSEEESREFNPSSSGRSARTVSSNSFCSDDTGCPSSQSVSPVKTPSDAGNSPIGFCPGSDEGFTRKKCTIGMVGEGSIQSSRYKKESKSGLVKPGSEADFSSSSSTGSISAPEVHMSTAGSKRSSSSRNRGPHGRSNGASSHKPGSSPSSPREKDLLSMLCRNQLSPVNIHPSYAPSSPSSSNSGSYKGSDCSPIMRRSGRYMSCGENHGVRPPNPEQYLTPLQQKEVTVRHLKTKLKESERRLHERESEIVELKSQLARMREDWIEEECHRVEAQLALKEARKEIKQLKQVIETMRSSLADKDKGIQKYFVDINIQNKKLESLLQSMEMAHSGSLRDELCLDFPCDSPEKSLTLNPPLDTMADGLSLEEQVTGEGADRELLVGDSIANSTDLFDEIVTATTTESGDLELVHSTPGANVLELLPIVMGQEEGSVVVERAVQTDVVPYSPAISELIQSVLQKLQDPCPSSLASPDESEPDSMESFPESLSALVVDLTPRNPNSAILLSPVETPYANVDAEVHANRLMRELDFAACVEERLDGVIPLARGGVVRQYWSSSFLVDLLAVAAPVVPTVLWAFSTQRGGTDPVYNIGALLRGCCVVALHSLRRTAFRIKT [SYBU]”, for which the “solubility in G1/S (log2)” value in the data set on HeLa Kyoto [1] was -0.253. Also, the “solubility change mitosis (log2)” value in the data set on HeLa Kyoto [2] was found to be 0.0944.

As to “MASVRIREAKEGDCGDILRLIRELAEFEKLSDQVKISEEALRADGFGDNPFYHCLVAEILPAPGKLLGPCVVGYGIYYFIYSTWKGRTIYLEDIYVMPEYRGQGIGSKIIKKVAEVALDKGCSQFRLAVLDWNQRAMDLYKALGAQDLTEAEGWHFFCFQGEATRKLAGK [SAT2]”, the “solubility in G1/S (log2)” value in the data set with HeLa Kyoto [1] is 0.139. Moreover, the “solubility change mitosis (log2)” value in the data set with HeLa Kyoto [2] is -0.259.

“MTFQFNFTIEDHLENELTPIRDGALTLDSSKELSVSESQKGEERDRKCSAEQFDLPQDHLWEHKSMENAAPSQDTDSPLSAASSSRNLEPHGKQPSLRAAKEHAMPKDLKKMLENKVIETLPGFQHVKLSVVKTILLKENFPGENIVSKSFSSHSDLITGVYEGGLKIWECTFDLLAYFTKAKVKFAGKKVLDLGCGSGLLGITAFKGGSKEIHFQDYNSMVIDEVTLPNVVANSTLEDEENDVNEPDVKRCRKPKVTQLYKCRFFSGEWSEFCKLVLSSEKLFVKYDLILTSETIYNPDYYSNLHQTFLRLLSKNGRVLLASKAHYFGVGGGVHLFQKFVEERDVFKTRILKIIDEGLKRFIIEITFKFPG [METTL18]”: in the data set with HeLa Kyoto [1], the “solubility in G1/S (log2)” value was -0.31. Moreover, the “solubility change mitosis (log2)” value in the data set on HeLa Kyoto [2] came to 0.0132.

For “MDRFLVKGAQGGLLRKQEEQEPTGEEPAVLGGDKESTRKRPRREAPGNGGHSAGPSWRHIRAEGLDCSYTVLFGKAEADEIFQELEKEVEYFTGALARVQVFGKWHSVPRKQATYGDAGLTYTFSGLTLSPKPWIPVLERIRDHVSGVTGQTFNFVLINRYKDGCDHIGEHRDDERELAPGSPIASVSFGACRDFVFRHKDSRGKSPSRRVAVVRLPLAHGSLLMMNHPTNTHWYHSLPVRKKVLAPRVNLTFRKILLTKK [ALKBH2]”, the “solubility in G1/S (log2)” value with HeLa Kyoto [1] was 0.0785. In addition, the “solubility change mitosis (log2)” value in the data set on HeLa Kyoto [2] is 0.0123.

Consider “MRLFLWNAVLTLFVTSLIGALIPEPEVKIEVLQKPFICHRKTKGGDLMLVHYEGYLEKDGSLFHSTHKHNNGQPIWFTLGILEALKGWDQGLKGMCVGEKRKLIIPPALGYGKEGKGKIPPESTLIFNIDLLEIRNGPRSHESFQEMDLNDDWKLSKDEVKAYLKKEFEKHGAVVNESHHDALVEDIFDKEDEDKDGFISAREFTYKHDEL [FKBP14]”, for which, in the data set on HeLa Kyoto [1], the “solubility in G1/S (log2)” value stood at 0.295. Moreover, the “solubility change mitosis (log2)” value in the data set on HeLa Kyoto [2] is -0.053.
